According to a protein production outcome set (Wang et al. 2014):

Experiment: label from the status in PepcDB records

Protein production, not failed:
MLEHLIKISRRNWSSLKVIILAGGRGKRITLFKPFLVVCGKPLISWAFDAVNKLSDKVYLGINQSHPLFTIFKHSIFKIFPTPDISYENDVKYVVESLGPPILVLPVDIAFINNNIINNLIERCAVDMCTLKSYGSYLGVTYWTGLNFSNYTDIEVKEKLYNINTWEDYIKANKECNILLEHHHHHH

Protein production, failed:
MLDRLRSIPVRGLFARLFSWLFFGLAFALVAATIVDVFELLNSDEPLMQAMINGVNGSIIALAVYELAMVIRSEYSGRSETHDIVTMMRRTLPRFISTVCVAMSLEGLIMIIKYSQLDLAGNLVYPVAIIASTALLLAALGVFLKMAPKEIGANGCDESCTTK
MLDSFEILKALKSLDLLKNAPSWWWPNALKFEALLGAVLTQNTKFEAVLKSLENLKNAFILENDDEINLKKIAYIEFSKLAECVRPSGFYNQKAKRLIDLSKNILKDFQSFENFKQEVTREWLLNQKGVGKESADAILCYVCAKEVMVVDKYSYLFLKKIGIEIEDYDELQHFFEKGVQENLNSALALYENTIPLAQLYARFHGKIVEFSKQKLELKL
MLDSINRVLDRPDFGKLFLRVSFSVLMLFHGWHKLHGGIGFIEGMLTNAGLPAFVGYGVYVGEIIIPIMMILGIFTRPAALIFSFTMFVASLLVHSGDFLSLEKTGAWAVEGAAVFFFAGIAIALLGSGKYSVMSNPRWR
MLDVRARAALSGPLDRAAAMLDRPAVTPNRLTALGLLTGLASAGSAAAGWWPAAAALWLLSRLADGLDGPLARRRGTANSSGAGGFLDISADFLVYGAFVVGVAVGVGGPALPFLLVLLTYYVNGTAFLAFSSIAERTGRRGDGRLSGGRSLNFLGGLAEGGETIAVHTLWCLLPGFAHTIAWVWAAVVAVTAAHRVVTGYRQLR
MLEGEFLSVAELKDLTLSLASKFLNNLLASKLLVSKQLFIDRKKELGLLEERLKSGKAQFIVIYGRRRVGKTALILEFLRRHGGLYLLARETSEIENLERFSLRLAEYFNDSFLKKNPLRSLDAFFEYLSTKAEKPFIIAIDEFPYLVKGNKALPSILQEYWEMKLSKKKIFLIVSGSSVSMTERLLGYKSPLYGRRTAQLKLKPLDFFNAREFLPKYSLEDFVRVYGILGGTPAYLLEFSDEKSLEENLKSYFRVDSLLYGDALFILREELDEPRNYFAIMEAIARGNTTLGEIVNETGLERATVGKYLSVLIDLDLVRREVPITASRKSRKGRYYIADNYFAFWFRYVYPNADLIESGNGELLVDTVMDDIDHYTGEVFEGVAKEFLLRLNKSERLPFRFSRVGRWWYKNEEIDLVALNEREKKVLFIEVKWKDLSKREARGILKDLKRKAKLVGLDEWGKHYGLVAKSVRGKDEIKEEGWLAWDLEDIHRMAFLEHHHHHH
MLELIIILLFIILSAIFSASETAYTSLSIIQIQDIRKKGKSGISVYNLVQSPSKLITTILIGNNISNIVASTLTTKFVLEKYGNSALAISTGLITIIVLIFAEILPKQIAILNNEIIALSTSFFLKPLIFIFTPLIYIINKIIKKILNLFKVKTSSQMTKESIKNMLSLAGSLGILKNDSRIFMQKMLDIDQVRASEIMTHRTGVFSLSSSSKLKDVIKLIKEEGYSRIPIYKGQSREQIIGILIAKDLIEVNKKDMNKNVSQFIKPAVFVQQNKRIKDILDIMRKKQKIMAIVIDEYGGFSGILTIEDIVEKIFGAISDEYDIKEEKPLITQINDNTYSILGETTFDEIEEAIGISIKHKEYTNTIGGYLIDLLDKIPTKNETVKTNDGEYFIKEIQNNKIETITFIKSKK
MLELLTLLLPVAAASGWYAAARHHGRNLSAGLNDGLQRAYQTPTDTAIGARADEAFHLLRQIADSSAKTLELQLALGGLLRRSGELSKAIELHERLHSQPQMSDEQLHAIRFELGMDYLSAGLLDRAETVFAGLTATASHGKASLQQMLAIYQSEKDWVRAAECARSLKKFDAGQRNATLAHLLCEQAESAIARGETVAAHAHLQQALAEDPRCVRATLLKSRLALQRQQWAEAGTLLRSVEFQNPAFLPEVIGQLRLCHASLRDMDGYLTYLDYVYQRYRTEAAALLLADELAQREGAPAAASYLTGLLSERSSLNLIRRTLHYAGAATCIDGDCLSILRRCLTALDGLASMHPGYGCVQCGYECRELHWHCPTCRAWETIQPADPGVGFSGKTPATTPS
